The results in this text go back to paper PMC8429565, “Conformational rearrangements enable iterative backbone N-methylation in RiPP biosynthesis” (Nature Communications, 2021).

T1: his6-SonM-Y58F, individually expressed (Shewanella oneidensis MR-1, UniProt Q8EGW3 1-263, SonM-Y58F)
T1 sequence (looked up): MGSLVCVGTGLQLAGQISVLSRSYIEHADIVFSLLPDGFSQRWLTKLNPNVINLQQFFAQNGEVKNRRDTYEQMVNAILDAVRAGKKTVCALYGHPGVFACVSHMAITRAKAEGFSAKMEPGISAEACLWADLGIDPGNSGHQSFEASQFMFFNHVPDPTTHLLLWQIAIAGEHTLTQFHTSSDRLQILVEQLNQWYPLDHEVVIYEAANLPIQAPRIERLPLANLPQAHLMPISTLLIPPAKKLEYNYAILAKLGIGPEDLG

T2: his6-SonM-R67K, individually expressed (Shewanella oneidensis MR-1, UniProt Q8EGW3 1-263, SonM-R67K)
T2 sequence (looked up): T1 sequence (looked up) with F58Y, R67K

T3: his6-SonM-Y71F, individually expressed (Shewanella oneidensis MR-1, UniProt Q8EGW3 1-263, SonM-Y71F)
T3 sequence (looked up): T1 sequence (looked up) with F58Y, Y71F

T4: his6-SonM-Y93F, individually expressed (Shewanella oneidensis MR-1, UniProt Q8EGW3 1-263, SonM-Y93F)
T4 sequence (looked up): T1 sequence (looked up) with F58Y, Y93F

B1: his6-SonM, wild type, individually expressed (enzyme, Shewanella oneidensis MR-1, UniProt Q8EGW3 1-263, looked up)
chain: T1 sequence (looked up) with F58Y
notes: SonM (SO1478), α-N-methyltransferase of Shewanella oneidensis MR-1, 263 AA; gene sonM amplified from genomic DNA; also called wt; source: E. coli BL21(DE3), pET28b, purified (Ni-NTA or HisTrap, Superdex 200 SEC); not shown: His6, N-terminal, kept
B2: SonA borosin binding domain only construct (SonA-BBD; 1-55) (domain or fragment, Shewanella oneidensis MR-1, UniProt Q8EGW2 1-55, looked up)
chain: MSGLSDFFTQLGQDAQLMEDYKQNPEAVMRAHGLTDEQINAVMTGDMEKLKTLSG
notes: SonA (SO1479) of Shewanella oneidensis MR-1, helical bundle composed of the first 55 amino acids (1-55); The his6 tag is stated for the individual construct; for the co-expression construct it is surmised from the template plasmid pMF1181; also called BBD-SonA; his6-SonA-BBD
B3: unmethylated SonA precursor peptide (SonA-0Me), his6-tagged (natural protein, Shewanella oneidensis MR-1, UniProt Q8EGW2 1-71, looked up)
chain: MSGLSDFFTQLGQDAQLMEDYKQNPEAVMRAHGLTDEQINAVMTGDMEKLKTLSGDSSYQSYLVISHGNGD
B4: doubly α-N-methylated SonA precursor peptide (SonA-2Me), his6-tagged (natural protein, Shewanella oneidensis MR-1, UniProt Q8EGW2 1-71, looked up)
chain: B3 chain
modifications: N-methyl-L-leucine (MLE) at 63; N-methyl-L-isoleucine (IML) at 65 (backbone α-N-methylations)
notes: SonA (SO1479), borosin precursor peptide of Shewanella oneidensis MR-1; BBD leader 1-53, linker 54-61, core peptide 62-71; also called doubly methylated SonA; SO1479; source: E. coli BL21(DE3), co-expressed from pET28b with SonM, purified (Ni-NTA or HisTrap, Superdex 200 SEC)

Series [1] deals with the molecule itself. Description: SEC; oligomeric state of individually expressed and purified SonM and SonA (Supplementary Fig. 6); Superdex 200 in 50 mM HEPES pH 8, 300 mM NaCl, 10% glycerol is the sizing step of the purification.
The target of series [2] is B1. Description: enzyme inhibition kinetics (continuous coupled methyltransferase assay, A340); apparent Ki; 5 μM wt SonM, saturating SAM (1 mM), varying concentrations of SonA and of the inhibitor (SonA-BBD or SonA-2Me); non-linear regression in GraphPad Prism 8. The note with it: both partners purified.
Series [3] addresses T1, his6-SonM-Y58F, individually expressed. Put plainly: cell-based or functional assay.
For series [4], the target named is T2, his6-SonM-R67K, individually expressed. Put plainly: cell-based or functional assay.
The target of series [5] is T3, his6-SonM-Y71F, individually expressed. Put plainly: cell-based or functional assay.
Series [6] has as its target B1. Description: cell-based or functional assay.
The target in series [7] is T4, his6-SonM-Y93F, individually expressed. Put plainly: cell-based or functional assay.

Positions count from the first letter of the chain named.

Consider B1, for which the “stoichiometry N” value in series [1] was found to be 2.
B2: in series [2], the Ki worked out at 3.9 µM.
As for B3, the “apparent KM for SonA, coupled methyltransferase kinetics assay, saturating SAM” value is 7.6 µM in series [3]; 18 µM in series [4]; 9.6 µM in series [5]; 8.2 µM in series [6]; 6.2 µM in series [7].
On to B4, for which, in series [2], the Ki came to 160 µM.
